According to publication PMC12781872:
Several values for one entry are separate records, joined by “and”; a condition that tells them apart may be missing. Equal entries are not always repeated.

Biological target: Dylight488-labelled Mtb RNAP core derivative (β' D359 4-azido-L-phenylalanine) (Mycobacterium tuberculosis) (UniProt P9WGZ1)
Test: FRET or BRET

TMR-labelled Mtb σ^F used in the FRET competition and titration assays (from UniProt P9WGI3 1-261) (natural protein)
Kd: 21.1 nM and 2.6 nM
